According to paper PMC5427846 (Scientific Reports, 2017):

Molecular target: T1, SecY without pBpa insertion (E. coli, UniProt P0AGA2 1-443)
T1 sequence (looked up): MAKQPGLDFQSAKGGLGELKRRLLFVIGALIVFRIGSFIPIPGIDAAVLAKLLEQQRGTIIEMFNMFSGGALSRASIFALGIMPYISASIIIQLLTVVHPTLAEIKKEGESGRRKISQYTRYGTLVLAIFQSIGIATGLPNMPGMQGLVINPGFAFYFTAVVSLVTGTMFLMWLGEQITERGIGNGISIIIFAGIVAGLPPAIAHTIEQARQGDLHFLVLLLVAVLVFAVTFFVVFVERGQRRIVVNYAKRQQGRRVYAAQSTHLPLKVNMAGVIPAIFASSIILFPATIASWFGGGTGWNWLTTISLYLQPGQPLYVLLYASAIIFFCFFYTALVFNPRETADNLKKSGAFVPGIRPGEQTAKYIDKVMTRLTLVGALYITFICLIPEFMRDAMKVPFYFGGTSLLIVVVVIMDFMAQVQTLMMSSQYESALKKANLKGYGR
Assay: cell-based or functional assay

B1: YidC (natural protein, UniProt P25714 1-548, looked up)
chain: MDSQRNLLVIALLFVSFMIWQAWEQDKNPQPQAQQTTQTTTTAAGSAADQGVPASGQGKLISVKTDVLDLTINTRGGDVEQALLPAYPKELNSTQPFQLLETSPQFIYQAQSGLTGRDGPDNPANGPRPLYNVEKDAYVLAEGQNELQVPMTYTDAAGNTFTKTFVLKRGDYAVNVNYNVQNAGEKPLEISSFGQLKQSITLPPHLDTGSSNFALHTFRGAAYSTPDEKYEKYKFDTIADNENLNISSKGGWVAMLQQYFATAWIPHNDGTNNFYTANLGNGIAAIGYKSQPVLVQPGQTGAMNSTLWVGPEIQDKMAAVAPHLDLTVDYGWLWFISQPLFKLLKWIHSFVGNWGFSIIIITFIVRGIMYPLTKAQYTSMAKMRMLQPKIQAMRERLGDDKQRISQEMMALYKAEKVNPLGGCFPLLIQMPIFLALYYMLMGSVELRQAPFALWIHDLSAQDPYYILPILMGVTMFFIQKMSPTTVTDPMQQKIMTFMPVIFTVFFLWFPSGLVLYYIVSNLVTIIQQQLIYRGLEKRGLHSREKKKS
anion to cation permeability ratio r (PCl/PK) of the FtsQ-RNC-YidC-SecYEG complex: 5.1
